Data set [1] deals with T1, ARR1 (UniProt Q940D0 1-690).
T1 sequence: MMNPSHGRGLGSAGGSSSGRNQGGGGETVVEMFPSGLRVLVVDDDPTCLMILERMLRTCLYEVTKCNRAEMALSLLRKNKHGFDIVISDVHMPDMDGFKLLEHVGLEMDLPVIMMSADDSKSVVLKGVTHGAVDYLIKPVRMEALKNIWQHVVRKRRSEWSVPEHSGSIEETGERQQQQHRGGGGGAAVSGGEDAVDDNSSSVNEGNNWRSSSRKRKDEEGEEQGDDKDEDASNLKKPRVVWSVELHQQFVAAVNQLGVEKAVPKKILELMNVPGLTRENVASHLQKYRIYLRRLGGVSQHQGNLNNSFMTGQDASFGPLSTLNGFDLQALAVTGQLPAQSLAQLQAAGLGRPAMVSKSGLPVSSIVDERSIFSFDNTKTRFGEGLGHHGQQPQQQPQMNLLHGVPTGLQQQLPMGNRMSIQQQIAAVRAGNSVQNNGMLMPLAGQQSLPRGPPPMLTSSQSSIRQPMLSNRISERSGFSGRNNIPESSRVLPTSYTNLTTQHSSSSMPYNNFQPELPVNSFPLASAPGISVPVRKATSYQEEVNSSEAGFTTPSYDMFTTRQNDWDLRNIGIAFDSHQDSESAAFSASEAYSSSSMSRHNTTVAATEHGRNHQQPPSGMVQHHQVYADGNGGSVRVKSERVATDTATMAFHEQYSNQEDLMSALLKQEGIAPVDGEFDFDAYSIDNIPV
Description: competition.

Data set [2] has as its target T2, ARR10 (UniProt O49397 1-552).
T2 sequence: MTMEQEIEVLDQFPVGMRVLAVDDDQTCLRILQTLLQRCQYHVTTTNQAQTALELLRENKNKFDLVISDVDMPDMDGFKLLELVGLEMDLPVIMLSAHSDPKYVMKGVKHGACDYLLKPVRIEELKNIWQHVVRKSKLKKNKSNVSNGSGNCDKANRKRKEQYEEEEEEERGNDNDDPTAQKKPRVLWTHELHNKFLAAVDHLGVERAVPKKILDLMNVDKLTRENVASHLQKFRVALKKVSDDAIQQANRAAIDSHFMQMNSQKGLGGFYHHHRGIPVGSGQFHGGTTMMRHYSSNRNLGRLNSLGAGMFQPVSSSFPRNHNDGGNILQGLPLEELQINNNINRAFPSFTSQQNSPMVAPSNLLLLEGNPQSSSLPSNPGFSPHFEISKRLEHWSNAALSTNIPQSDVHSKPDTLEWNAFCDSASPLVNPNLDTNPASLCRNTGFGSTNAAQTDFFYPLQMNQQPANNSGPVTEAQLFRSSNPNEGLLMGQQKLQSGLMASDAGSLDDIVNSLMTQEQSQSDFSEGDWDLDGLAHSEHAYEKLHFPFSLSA
The data set is described as follows: competition.

This is an account of results in publication PMC6018948.

B1: AG mutated competitor (dsDNA)
DNA 1: TTTAAAGCAATGGTTACAATTTTAATACTATCAAATGTCTATTGCTTTTA
DNA 2: TAAAAGCAATAGACATTTGATAGTATTAAAATTGTAACCATTGCTTTAAA
In the case of B1, the binding result in data set [1] and in data set [2] was “no binding” throughout.
